According to the supplement of paper PMC11246515:
± gives the standard deviation of the averaged measurements.

Experiment: total protein half-life in vivo (active degradation + dilution); higher = more stable protein
[1] = E. coli NCM3722 delta-clpP delta-lon delta-hslV, growth: N-lim chemostat, doubling time 6 h
[2] = wild type E. coli NCM3722, growth: C-lim chemostat, doubling time 3 h
[3] = wild type E. coli NCM3722, growth: C-lim chemostat, doubling time 6 h
[4] = wild type E. coli NCM3722, growth: C-lim chemostat, doubling time 12 h
[5] = E. coli NCM3722 delta-clpP, growth: N-lim chemostat, doubling time 6 h
[6] = E. coli NCM3722 delta-hslV, growth: N-lim chemostat, doubling time 6 h
[7] = E. coli NCM3722 delta-lon, growth: N-lim chemostat, doubling time 6 h
[8] = E. coli NCM3722 delta-smpB, growth: N-lim chemostat, doubling time 6 h
[9] = wild type E. coli NCM3722, growth: N-lim chemostat, doubling time 6 h
[10] = wild type E. coli NCM3722, growth: N-lim chemostat, doubling time 12 h
[11] = wild type E. coli NCM3722, growth: P-lim chemostat, doubling time 6 h
[12] = wild type E. coli NCM3722, growth: P-lim chemostat, doubling time 12 h

Row | Sequence | total protein half-life in vivo [1] [h] | total protein half-life in vivo [2] [h] | total protein half-life in vivo [3] [h] | total protein half-life in vivo [4] [h] | total protein half-life in vivo [5] [h] | total protein half-life in vivo [6] [h] | total protein half-life in vivo [7] [h] | total protein half-life in vivo [8] [h] | total protein half-life in vivo [9] [h] | total protein half-life in vivo [10] [h] | total protein half-life in vivo [11] [h] | total protein half-life in vivo [12] [h]
1 | MIKSKIVLLSALVSCALISGCKEENKTNVSIEFMHSSVEQERQAVISKLIARFEKENPGITVKQVPVEEDAYNTKVITLSRSGSLPEVIETSHDYAKVMDKEQLIDRKAVATVISNVGEGAFYDGVLRIVRTEDGSAWTGVPVSAWIGGIWYRKDVLAKAGLEEPKNWQQLLDVAQKLNDPANKKYGIALPTAESVLTEQSFSQFALSNQANVFNAEGKITLDTPEMMQALTYYRDLTANTMPGSNDIMEVKDAFMNGTAPMAIYSTYILPAVIKEGDPKNVGFVVPTEKNSAVYGMLTSLTITAGQKTEETEAAEKFVTFMEQADNIADWVMMSPGAALPVNKAVVTTATWKDNDVIKALGELPNQLIGELPNIQVFGAVGDKNFTRMGDVTGSGVVSSMVHNVTVGKADLSTTLQASQKKLDELIEQH | 5.01 | 3 | 4.35 ± 1.8 | 13.3 | – | – | – | – | – | – | – | –
2 | MMNFNNVFRWHLPFLFLVLLTFRAAAADTLLILGDSLSAGYRMSASAAWPALLNDKWQSKTSVVNASISGDTSQQGLARLPALLKQHQPRWVLVELGGNDGLRGFQPQQTEQTLRQILQDVKAANAEPLLMQIRLPANYGRRYNEAFSAIYPKLAKEFDVPLLPFFMEEVYLKPQWMQDDGIHPNRDAQPFIADWMAKQLQPLVNHDS [P0ADA1] | 4.1 ± 0.072 | 3.25 ± 0.11 | 6.228 ± 0.058 | 11.1 ± 5.7 | 4.87 ± 0.67 | 6.432 ± 0.063 | 6.67 ± 0.4 | 4.99 ± 0.46 | 5.25 ± 0.28 | 11 ± 3.7 | 5.23 ± 0.37 | 11.4 ± 0.78
3 | MTILNHTLGFPRVGLRRELKKAQESYWAGNSTREELLAVGRELRARHWDQQKQAGIDLLPVGDFAWYDHVLTTSLLLGNVPARHQNKDGSVDIDTLFRIGRGRAPTGEPAAAAEMTKWFNTNYHYMVPEFVKGQQFKLTWTQLLDEVDEALALGHKVKPVLLGPVTWLWLGKVKGEQFDRLSLLNDILPVYQQVLAELAKRGIEWVQIDEPALVLELPQAWLDAYKPAYDALQGQVKLLLTTYFEGVTPNLDTITALPVQGLHVDLVHGKDDVAELHKRLPSDWLLSAGLINGRNVWRADLTEKYAQIKDIVGKRDLWVASSCSLLHSPIDLSVETRLDAEVKSWFAFALQKCHELALLRDALNSGDTAALAEWSAPIQARRHSTRVHNPAVEKRLAAITAQDSQRANVYEVRAEAQRARFKLPAWPTTTIGSFPQTTEIRTLRLDFKKGNLDANNYRTGIAEHIKQAIVEQERLGLDVLVHGEAERNDMVEYFGEHLDGFVFTQNGWVQSYGSRCVKPPIVIGDISRPAPITVEWAKYAQSLTDKPVKGMLTGPVTILCWSFPREDVSRETIAKQIALALRDEVADLEAAGIGIIQIDEPALREGLPLRRSDWDAYLQWGVEAFRINAAVAKDDTQIHTHMCYCEFNDIMDSIAALDADVITIETSRSDMELLESFEEFDYPNEIGPGVYDIHSPNVPSVEWIEALLKKAAKRIPAERLWVNPDCGLKTRGWPETRAALANMVQAAQNLRRG | 3.21 ± 0.81 | 2.48 ± 0.19 | 4.22 ± 0.071 | 6.91 ± 0.33 | 2.4 ± 0.23 | 2.34 ± 0.34 | 2.938 ± 0.012 | 2.6 ± 0.53 | 2.56 ± 0.063 | 3.593 ± 0.023 | 4.14 ± 0.21 | 6.88 ± 1.1
4 | MQASQFSAQVLDWYDKYGRKTLPWQIDKTPYKVWLSEVMLQQTQVATVIPYFERFMARFPTVTDLANAPLDEVLHLWTGLGYYARARNLHKAAQQVATLHGGKFPETFEEVAALPGVGRSTAGAILSLSLGKHFPILDGNVKRVLARCYAVSGWPGKKEVENKLWSLSEQVTPAVGVERFNQAMMDLGAMICTRSKPKCSLCPLQNGCIAAANNSWALYPGKKPKQTLPERTGYFLLLQHEDEVLLAQRPPSGLWGGLYCFPQFADEESLRQWLAQRQIAADNLTQLTAFRHTFSHFHLDIVPMWLPVSSFTGCMDEGNALWYNLAQPPSVGLAAPVERLLQQLRTGAPV | – | 3.86 | 4.84 ± 0.14 | 7.51 ± 0.26 | 5.73 ± 0.018 | 4.02 ± 0.7 | 3.65 ± 0.12 | 3.52 ± 0.35 | 4.8 ± 1.8 | 6.05 | 4.89 ± 0.49 | 8.5 ± 0.85
5 | MSKTHLTEQKFSDFALHPKVVEALEKKGFHNCTPIQALALPLTLAGRDVAGQAQTGTGKTMAFLTSTFHYLLSHPAIADRKVNQPRALIMAPTRELAVQIHADAEPLAEATGLKLGLAYGGDGYDKQLKVLESGVDILIGTTGRLIDYAKQNHINLGAIQVVVLDEADRMYDLGFIKDIRWLFRRMPPANQRLNMLFSATLSYRVRELAFEQMNNAEYIEVEPEQKTGHRIKEELFYPSNEEKMRLLQTLIEEEWPDRAIIFANTKHRCEEIWGHLAADGHRVGLLTGDVAQKKRLRILDEFTRGDLDILVATDVAARGLHIPAVTHVFNYDLPDDCEDYVHRIGRTGRAGASGHSISLACEEYALNLPAIETYIGHSIPVSKYNPDALMTDLPKPLRLTRPRTGNGPRRTGAPRNRRRSG [P0A8J8] | 6.02 ± 0.1 | 3.18 ± 0.11 | 5.73 ± 0.11 | 9.86 ± 0.77 | 5.9 ± 0.37 | 5.52 ± 0.76 | 5.16 ± 0.18 | 4.94 ± 0.49 | 4.71 ± 0.18 | 7.89 ± 0.44 | 5.06 ± 0.39 | 9.85 ± 0.23
6 | MTNPQFAGHPFGTTVTAETLRNTFAPLTQWEDKYRQLIMLGKQLPALPDELKAQAKEIAGCENRVWLGYTVAENGKMHFFGDSEGRIVRGLLAVLLTAVEGKTAAELQAQSPLALFDELGLRAQLSASRSQGLNALSEAIIAATKQV [P0AGF2] | 4.97 ± 0.16 | 3.4 ± 0.066 | 5.18 ± 0.76 | 8.98 ± 0.8 | 4.73 ± 0.56 | 4.9 ± 0.33 | 5.38 ± 0.38 | 4.87 ± 0.87 | 4.504 ± 0.012 | 8.14 ± 0.94 | 5.64 ± 0.32 | 11.1 ± 0.35
7 | MHKAILNSDLIATKAGDVTVYNYDGETREYISTSNEYLAVGVGIPACSCLDAPGTHKAGYAICRSADFNSWEYVPDHRGETVYSTKTGESKEIKAPGDYPENTTTIAPLSPYDKWDGEKWVTDTEAQHSAAVDAAEAQRQSLIDAAMASISLIQLKLQAGRKLTQAETTRLNAVLDYIDAVTATDTSTAPDVIWPELPEA | – | – | – | 3.87 | 2.37 | – | 1.83 | 2.04 ± 0.18 | 3.06 | 3.07 ± 0.66 | – | –
